Target: HERG-1b (human) (UniProt Q12809)
Test: cell-based or functional assay

## HERG-1a N-Terminal Domain fused to eCFP
  deactivation kinetics, two-electrode voltage clamp in Xenopus oocytes: 10 fold

From US20090047703A1
